From publication PMC4245140, “Towards Engineering Hormone-Binding Globulins as Drug Delivery Agents” (PLoS ONE, 2014)

Key:
[1] = biological target: prostate specific antigen (PSA) (Homo sapiens, UniProt P07288); assay: Protease cleavage assay (SDS-PAGE) with prostate specific antigen; type: biochemical; settings: incubation 2-72 hours
Description: Reactive loop cleavage is marked by a characteristic 4 kDa change in molecular weight following release of a peptide when the R-state CBG is unfolded, such as when it is subjected to the denaturing conditions of an SDS-PAGE [14], [22]. We used this as a convenient means by which to check the engineered protein's protease specificity and, as a corollary, its site specificity.

[2] = Fluorimetric titration of L-T4-thyroxine-6-carboxyfluorescein with engineered CBG; type: binding; settings: 25°C
Experimental: (§1) Fluorescence spectroscopy was used to study the CBG-ligand interactions. Experiments were performed on an LS55 120V fluorescence spectrometer (Perkin Elmer), and the data were read and recorded using their proprietary FL WinLab software. For binding studies of CBG with cortisol, the excitation wavelength was set at 280 nm and the emission was detected at 350 nm, with a 315 nm cut-off filter used to prevent the excitation laser from leaching into the emission channel. For the binding studies of engineered CBG with L-T4-thyroxine-6-carboxyfluorescein, the excitation wavelength was set at 495 nm and emission was recorded at 520 nm whilst applying a 515 nm cut-off filter.
L-T4-thyroxine-6-carboxyfluorescein was previously synthesised and purified as a 1.09 µM solution with acetonitrile as its solvent. This was diluted into a 5 nM solution with a buffer containing 10 mM Tris-HCl, pH 7.4, 150 mM NaCl, 1 mM EDTA, 0.1% v/v PEG 8000. Aliquots of the engineered CBG were titrated into 800 µl of this solution, and increments in fluorescence signal were monitored.
(§2) In both cases, the data were fitted using Prism 5 (GraphPad Software) to the following equation to obtain the dissociation constant, Kd: [drawing 2] (2) where ΔF is the fluorescence change, ΔFM is the maximum change in fluorescence signal, [L]t is the total concentration of ligand added and [E]t is the total protein concentration.

[3] = Biolayer interferometry of CBG on immobilised cortisol (ForteBio Octet Red); type: binding; settings: CBG 0-10000 nM
Experimental: Biolayer interferometry was carried out on a ForteBio Octet Red apparatus (ForteBio, Menlo Park, California, USA) to determine binding affinity where fluorescence quenching experiments would not work due to mutation of Trp 371, which is the main source of intrinsic fluorescence in the binding pocket. The system uses a change in interference pattern of reflected light to detect the change in optical thickness of the sensor tip. Cortisol was immobilised on the biosensor tip surface by forming an adduct of hydrocortisone 21-hemisuccinate and a pentylamine-biotin linker through an amide bond, then allowing the biotin moiety on this cortisol adduct to bind to the streptavidin-conjugated biosensor tip. The cortisol-conjugated sensors were immersed into wells of a shaking microtitre plate containing solutions of CBG at 0, 200, 500, 1000, 2500, 5000 and 10000 nM concentrations in a 10 mM Tris-HCl, pH 7.4, 150 mM NaCl, 1 mM EDTA, 0.1 mg/ml bovine serum albumin buffer, and analysed against an internal reference.

[4] = Fluorimetric titration (intrinsic fluorescence quenching) of CBG with cortisol; type: binding; settings: for Kd / Fold change in Kd (cortisol) on reactive centre loop cleavage, S to R: physiological temperature (37°C); for Fold change in Kd (cortisol) on reactive centre loop cleavage, S to R: disulphide mutants in absence of TCEP
Experimental: CBG is known to bind cortisol with a one-to-one stoichiometry, [19]. Therefore, the dissociation constant, which is a measure of binding affinity, is given by the following equation: [drawing 1] (1) where [E]f is the concentration of free CBG, [L]f is the concentration of free ligand, and [E·L] is the concentration of the CBG-ligand complex.
as §1
The cortisol stock solution was prepared by dissolving lyophilised cortisol (Sigma Aldrich) in 80% ethanol to make a 500 µM solution, which was then diluted with water to make solutions of 20, 40 and 80 µM, with water being used as a negative control. Aliquots of the ligand solutions were then titrated into 800 µl of a 200 nM solution of CBG made by diluting the protein stock with a buffer containing 10 mM Tris-HCl, pH 7.4, 150 mM NaCl, 1 mM EDTA, 0.1% v/v PEG 8000, and the decrease in fluorescence due to quenching was measured.
as §2

[5] = intact S-state, read-out: Kd for cortisol, S (uncleaved) conformation
[6] = reactive centre loop-cleaved R-state, read-out: Kd for cortisol, R (cleaved) conformation

Chain of prostate specific antigen (PSA) (P07288 25-261): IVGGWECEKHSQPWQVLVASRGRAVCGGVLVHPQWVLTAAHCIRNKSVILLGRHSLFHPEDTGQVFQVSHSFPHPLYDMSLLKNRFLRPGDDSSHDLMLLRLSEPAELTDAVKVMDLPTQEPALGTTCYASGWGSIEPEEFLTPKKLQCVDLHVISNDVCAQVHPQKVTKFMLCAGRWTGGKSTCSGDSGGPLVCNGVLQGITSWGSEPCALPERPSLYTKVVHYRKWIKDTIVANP

SALLSSDI: CBG variant with reactive centre loop segment STGVTLNL mutated to SALLSSDI (PSA substrate) (EEGVDTAGSALLSSDITSKPII)
Cleavage of reactive centre loop by PSA [1]: cleavage of their respective reactive centre loops

B1: TBG: Thyroxine binding globulin, hormone-carrying serpin, comparator (protein, UniProt P05543 21-415, looked up)
Thyroxine-binding globulin: ASPEGKVTACHSSQPNATLYKMSSINADFAFNLYRRFTVETPDKNIFFSPVSISAALVMLSFGACCSTQTEIVETLGFNLTDTPMVEIQHGFQHLICSLNFPKKELELQIGNALFIGKHLKPLAKFLNDVKTLYETEVFSTDFSNISAAKQEINSHVEMQTKGKVVGLIQDLKPNTIMVLVNYIHFKAQWANPFDPSKTEDSSSFLIDKTTTVQVPMMHQMEQYYHLVDMELNCTVLQMDYSKNALALFVLPKEGQMESVEAAMSSKTLKKWNRLLQKGWVDLFVPKFSISATYDLGATLLKMGIQHAYSENADFSGLTEDNGLKLSNAAHKAVLHIGEKGTEAAAVPEVELSDQPENTFLHPIIQIDRSFMLLILERSTRSILFLGKVVNPTEA
Kd [2]: 0.73 nM

B2: CBG-Trp371Ala: Human CBG with binding pocket Trp 371 mutated to alanine (protein, UniProt P08185 23-405, looked up, variant W371A)
Corticosteroid-binding …: MDPNAAYVNMSNHHRGLASANVDFAFSLYKHLVALSPKKNIFISPVSISMALAMLSLGTCGHTRAQLLQGLGFNLTERSETEIHQGFQHLHQLFAKSDTSLEMTMGNALFLDGSLELLESFSADIKHYYESEVLAMNFQDWATASRQINSYVKNKTQGKIVDLFSGLDSPAILVLVNYIFFKGTWTQPFDLASTREENFYVDETTVVKVPMMLQSSTISYLHDSELPCQLVQMNYVGNGTVFFILPDKGKMNTVIAALSRDTINRWSAGLTSSQVDLYIPKVTISGVYDLGDVLEEMGIADLFTNQANFSRITQDAQLKSSKVVHKAVLQLNEEGVDTAGSTGVTLNLTSKPIILRFNQPFIIMIFDHFTASSLFLARVMNPV
Affinity for cortisol by biolayer interferometry [3]: no detectable affinity for cortisol

B3: P1-Arg + V336L: Human CBG with P14 Val336Leu on T349R (P1 Arg) background, thrombin-cleavable (protein, UniProt P08185 23-405, looked up, variant V336L T349R)
Corticosteroid-binding …: MDPNAAYVNMSNHHRGLASANVDFAFSLYKHLVALSPKKNIFISPVSISMALAMLSLGTCGHTRAQLLQGLGFNLTERSETEIHQGFQHLHQLFAKSDTSLEMTMGNALFLDGSLELLESFSADIKHYYESEVLAMNFQDWATASRQINSYVKNKTQGKIVDLFSGLDSPAILVLVNYIFFKGTWTQPFDLASTREENFYVDETTVVKVPMMLQSSTISYLHDSELPCQLVQMNYVGNGTVFFILPDKGKMNTVIAALSRDTINRWSAGLTSSQVDLYIPKVTISGVYDLGDVLEEMGIADLFTNQANFSRITQDAQLKSSKVVHKAVLQLNEEGLDTAGSTGVTLNLRSKPIILRFNQPFIIMIFDHFTWSSLFLARVMNPV
Kd [4, 5]: 295 ± 44 nM
Fold change in Kd (cortisol) on reactive centre loop cleavage, S to R [4]: 8.2 fold
Kd [4, 6]: 2420 ± 200 nM

B4: P1-Arg + S100C-V236C: Human CBG with Ser100Cys/Val236Cys disulphide mutations on T349R background (PDB 4C41, cleaved) (protein, UniProt P08185 23-405, looked up, variant S100C V236C T349R)
Corticosteroid-binding …: MDPNAAYVNMSNHHRGLASANVDFAFSLYKHLVALSPKKNIFISPVSISMALAMLSLGTCGHTRAQLLQGLGFNLTERSETEIHQGFQHLHQLFAKSDTCLEMTMGNALFLDGSLELLESFSADIKHYYESEVLAMNFQDWATASRQINSYVKNKTQGKIVDLFSGLDSPAILVLVNYIFFKGTWTQPFDLASTREENFYVDETTVVKVPMMLQSSTISYLHDSELPCQLVQMNYCGNGTVFFILPDKGKMNTVIAALSRDTINRWSAGLTSSQVDLYIPKVTISGVYDLGDVLEEMGIADLFTNQANFSRITQDAQLKSSKVVHKAVLQLNEEGVDTAGSTGVTLNLRSKPIILRFNQPFIIMIFDHFTWSSLFLARVMNPV
Change in cortisol binding affinity after reactive loop cleavage in presence of TCEP ([4]; 37°C, reducing agent TCEP present): very similar to that of wild-type CBG
Kd [4, 5]: 278 ± 64 nM
Fold change in Kd (cortisol) on reactive centre loop cleavage, S to R [4]: 6.5 fold
Kd [4, 6]: 1800 ± 49 nM

B5: P1-Arg + V336I: Human CBG with P14 Val336Ile on T349R (P1 Arg) background, thrombin-cleavable (protein, UniProt P08185 23-405, looked up, variant V336I T349R)
Corticosteroid-binding …: MDPNAAYVNMSNHHRGLASANVDFAFSLYKHLVALSPKKNIFISPVSISMALAMLSLGTCGHTRAQLLQGLGFNLTERSETEIHQGFQHLHQLFAKSDTSLEMTMGNALFLDGSLELLESFSADIKHYYESEVLAMNFQDWATASRQINSYVKNKTQGKIVDLFSGLDSPAILVLVNYIFFKGTWTQPFDLASTREENFYVDETTVVKVPMMLQSSTISYLHDSELPCQLVQMNYVGNGTVFFILPDKGKMNTVIAALSRDTINRWSAGLTSSQVDLYIPKVTISGVYDLGDVLEEMGIADLFTNQANFSRITQDAQLKSSKVVHKAVLQLNEEGIDTAGSTGVTLNLRSKPIILRFNQPFIIMIFDHFTWSSLFLARVMNPV
Kd [4, 5]: 326 ± 46 nM
Fold change in Kd (cortisol) on reactive centre loop cleavage, S to R [4]: 10 fold
Kd [4, 6]: 3420 ± 440 nM

B6: P1-Arg + S100C-V236C-V336L: Human CBG combining S100C-V236C disulphide and V336L on T349R background (protein, UniProt P08185 23-405, looked up, variant S100C V236C V336L T349R)
Corticosteroid-binding …: MDPNAAYVNMSNHHRGLASANVDFAFSLYKHLVALSPKKNIFISPVSISMALAMLSLGTCGHTRAQLLQGLGFNLTERSETEIHQGFQHLHQLFAKSDTCLEMTMGNALFLDGSLELLESFSADIKHYYESEVLAMNFQDWATASRQINSYVKNKTQGKIVDLFSGLDSPAILVLVNYIFFKGTWTQPFDLASTREENFYVDETTVVKVPMMLQSSTISYLHDSELPCQLVQMNYCGNGTVFFILPDKGKMNTVIAALSRDTINRWSAGLTSSQVDLYIPKVTISGVYDLGDVLEEMGIADLFTNQANFSRITQDAQLKSSKVVHKAVLQLNEEGLDTAGSTGVTLNLRSKPIILRFNQPFIIMIFDHFTWSSLFLARVMNPV
Kd [4, 5]: 252 ± 17 nM
Fold change in Kd (cortisol) on reactive centre loop cleavage, S to R [4]: 6.4 fold
Kd [4, 6]: 1600 ± 320 nM

B7: P1-Arg + S100C-V236C-V336I: Human CBG combining S100C-V236C disulphide and V336I on T349R background (protein, UniProt P08185 23-405, looked up, variant S100C V236C V336I T349R)
Corticosteroid-binding …: MDPNAAYVNMSNHHRGLASANVDFAFSLYKHLVALSPKKNIFISPVSISMALAMLSLGTCGHTRAQLLQGLGFNLTERSETEIHQGFQHLHQLFAKSDTCLEMTMGNALFLDGSLELLESFSADIKHYYESEVLAMNFQDWATASRQINSYVKNKTQGKIVDLFSGLDSPAILVLVNYIFFKGTWTQPFDLASTREENFYVDETTVVKVPMMLQSSTISYLHDSELPCQLVQMNYCGNGTVFFILPDKGKMNTVIAALSRDTINRWSAGLTSSQVDLYIPKVTISGVYDLGDVLEEMGIADLFTNQANFSRITQDAQLKSSKVVHKAVLQLNEEGIDTAGSTGVTLNLRSKPIILRFNQPFIIMIFDHFTWSSLFLARVMNPV
Kd [4, 5]: 297 ± 40 nM
Fold change in Kd (cortisol) on reactive centre loop cleavage, S to R [4]: 7.6 fold
Kd [4, 6]: 2260 ± 320 nM

B8: CBG-Trp371Arg: Human CBG with binding pocket Trp 371 mutated to arginine (protein, UniProt P08185 23-405, looked up, variant W371R)
Corticosteroid-binding …: MDPNAAYVNMSNHHRGLASANVDFAFSLYKHLVALSPKKNIFISPVSISMALAMLSLGTCGHTRAQLLQGLGFNLTERSETEIHQGFQHLHQLFAKSDTSLEMTMGNALFLDGSLELLESFSADIKHYYESEVLAMNFQDWATASRQINSYVKNKTQGKIVDLFSGLDSPAILVLVNYIFFKGTWTQPFDLASTREENFYVDETTVVKVPMMLQSSTISYLHDSELPCQLVQMNYVGNGTVFFILPDKGKMNTVIAALSRDTINRWSAGLTSSQVDLYIPKVTISGVYDLGDVLEEMGIADLFTNQANFSRITQDAQLKSSKVVHKAVLQLNEEGVDTAGSTGVTLNLTSKPIILRFNQPFIIMIFDHFTRSSLFLARVMNPV
Affinity for cortisol by biolayer interferometry [3]: no measurable affinity for cortisol
Kd [2]: 840 nM
